# Measurements as given in patent US20250101446A1, “METHOD FOR GENETIC TRANSFORMATION OF PLANT ORGANELLE GENOME AND USES THEREOF” (Solar Grants Biotechnology Inc., priority 2022, published 2025).
# B1: plant-produced recombinant human IL-38, mature form C2-W152 with C-terminal 7xHIS tag (ligand)
# chain: CSLPMARYYIIKYADQKALYTRDGQLLVGDPVADNCCAEKICILPNRGLARTKVPIFLGIQGGSRCLACVETEEGPSLQLEDVNIEELYKGGEEATRFTFFQSSSGSAFRLEAAAWPGWFLCGPAEPQQPVQLTKESEPSARTKFYFEQSWHHHHHHH
# notes: range 2-152; also called rhIL-38; plantakine IL-38
# Test system: human metastatic breast cancer cell line MDA-MB-231
# Experiment: IL-6 secretion by MDA-MB-231 cells (P1 stimulation, plantakine pre-incubation; ELISA)
# Type: cell-based
# Conditions: pre-incubated 3 h at the indicated concentrations
# Description: IL-6 secretion by the human metastatic breast cancer cell line MDA-MB-231 into the conditioned media was measured by ELISA. The cells were pre-incubated for 3 h in the presence of plant-produced recombinant IL-38 or IL-37b at the indicated concentrations (ng/ml) prior to stimulation with peptide P1 (10 mM). PBS (1×) was added to the control. Shown are the average results of 3 independent experiments. ** P<0.01; * P<0.05, compared with the control.
# Correct folding of plant-produced IL-38 and IL-37b anti-inflammatory cytokines was assessed by enzyme-linked immunosorbent assay (ELISA) using the DuoSet Human IL-38/IL-1F10 kit (R&D systems) and the Human IL-37/IL-1F7 uncoated ELISA kit (Invitrogen), respectively, following the instructions of the manufacturers. Secreted IL-6 was assessed using the Human IL-6 Uncoated ELISA kit (Invitrogen).
molecule,measurement,value
B1,attenuating effect on P1-induced IL-6 secretion (in words),dose-dependent
